Assay [1] addresses T1, Human TROP2 Protein, His Tag (Acro Biosystems) (human, UniProt P09758 27-274).
T1 construct: Bought protein; not shown: His tag
T1 sequence (looked up): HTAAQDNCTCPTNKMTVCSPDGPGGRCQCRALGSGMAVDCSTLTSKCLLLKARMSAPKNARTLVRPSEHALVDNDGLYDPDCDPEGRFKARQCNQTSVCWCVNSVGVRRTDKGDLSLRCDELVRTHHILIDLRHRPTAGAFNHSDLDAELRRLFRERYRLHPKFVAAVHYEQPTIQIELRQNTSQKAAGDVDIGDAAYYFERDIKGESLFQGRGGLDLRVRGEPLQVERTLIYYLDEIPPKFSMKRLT
The assay is described as follows: BLI (Octet). Here is the method:
After allowing for four days of protein expression, cell culture supernatants were collected, quantified by SDS-PAGE analysis (DNS), and the pH dependence of the variant was evaluated using biolayer interferometry (BLI) on an Octet RED 96e instrument. Briefly, cell culture supernatants were diluted based on qualitative expression level of the variant determined by visual examination of SDS-PAGE gels, 5 μL of cell culture supernatant was diluted into 195 μL of 1×PBST, pH 7.4 for high expressors, 25 μL of cell culture supernatant was diluted into 175 μL of 1×PBST, pH 7.4 for medium expressors and 100 μL of cell culture supernatant was diluted into 100 μL of 1×PBST, pH 7.4 for low expressors for loading onto the sensor tips. The resulting diluted supernatants were then captured on an anti-human Fc sensor (Forte Bio). A baseline was established using 1×PBST (50 mM Potassium Phosphate Buffer+150 mM NaCl+0.05% Tween 20) pH 7.4, and the sensor was associated with 50 nM of TROP2 (Human TROP2 Protein, His Tag, Acro Biosystems) in 1×PBST pH 7.4 for 120 sec to generate an association curve. In the dissociation phase, the antibody-antigen complex on the sensor was exposed to 1×PBST pH 7.4 or pH 5.4, for 300 sec. Association and dissociation phase curves were examined for the starting ABPC antibody (with no substitutions) and each corresponding antibody variant at pH 5.4 and pH 7.4 to inform on two criteria: a) enhanced dissociation (i.e., higher koff values) at pH 5.4 due to histidine or alanine substitution compared to the starting ABPC, (with no substitutions), and b) reduced dissociation at pH 7.4 (i.e., lower koff values) compared to pH 5.4 in the antibody variant itself and with the starting ABPC (with no substitutions). […] It was also noted that while some mutations obliterated TROP2 binding, others were tolerated with little or n change in TROP2 binding kinetics.
Background: Biolayer interferometry detects binding as a change in optical thickness at a sensor tip.

The target in assay [2] is T2, Human TROP2 Protein, His Tag (Acro Biosystems) (human, UniProt P09758 27-274).
T2 construct: Bought protein; also called TACSTD2; not shown: His tag
T2 sequence: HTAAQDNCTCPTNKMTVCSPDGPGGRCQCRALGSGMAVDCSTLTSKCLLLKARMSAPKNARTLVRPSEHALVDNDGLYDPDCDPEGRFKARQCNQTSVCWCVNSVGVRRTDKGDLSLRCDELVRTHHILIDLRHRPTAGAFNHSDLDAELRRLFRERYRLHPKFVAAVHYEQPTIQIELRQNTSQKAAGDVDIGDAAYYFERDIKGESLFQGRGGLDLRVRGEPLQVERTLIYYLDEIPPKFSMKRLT
The assay is described as follows: BLI (Octet).

Where two headings read alike, the source gives them in different places.

B1: MYT11610 (antibody, V domains shown)
VH: QVQLQQSGSELKKPGASVKVSCKASGYTFTNYGMNWVKQAPGQGLKWMGWINTYTGEPTYTDDFKGRFAFSLDTSVSTAYLQISSLKADDTAVYFCARGGFGSSYWYFDVWGQGSLVTVSS
VL: DIQLTQSPSSLSASVGDRVSITCKAHQDVSIAVAWYQQKPGKAPKLLIYSASYRYTGVPDRFSGSGSGTDFTLTISSLQPEDFAVYYCQQHYITPLTFGAGTKVEIK
notes: Sacituzumab variant, His at LCV position 26 (L1 03)
With B1, in assay [1], the binding result was “binds”.

B2: MYT11620 (antibody, V domains shown)
VH: QVQLQQSGSELKKPGASVKVSCKASGYTFTNYGMNWVKQAPGQGLKWMGWINTYTGEPTYTDDFKGRFAFSLDTSVSTAYLQISSLKADDTAVYFCARGGFGSSYWYFDVWGQGSLVTVSS
VL: DIQLTQSPSSLSASVGDRVSITCKASQDVSIAVAWYQQKPGKAPKLLIYSHSYRYTGVPDRFSGSGSGTDFTLTISSLQPEDFAVYYCQQHYITPLTFGAGTKVEIK
notes: Sacituzumab variant, His at LCV position 51 (L2 02)
As to B2, in assay [1], the binding result was “binds”.

B3: MYT11613 (antibody, V domains shown)
VH: QVQLQQSGSELKKPGASVKVSCKASGYTFTNYGMNWVKQAPGQGLKWMGWINTYTGEPTYTDDFKGRFAFSLDTSVSTAYLQISSLKADDTAVYFCARGGFGSSYWYFDVWGQGSLVTVSS
VL: DIQLTQSPSSLSASVGDRVSITCKASQDHSIAVAWYQQKPGKAPKLLIYSASYRYTGVPDRFSGSGSGTDFTLTISSLQPEDFAVYYCQQHYITPLTFGAGTKVEIK
notes: Sacituzumab variant, His at LCV position 29 (L1 06)
Consider B3, for which, in assay [1], the binding result is on record as “binds”.

B4: MYT11611 (antibody, V domains shown)
VH: QVQLQQSGSELKKPGASVKVSCKASGYTFTNYGMNWVKQAPGQGLKWMGWINTYTGEPTYTDDFKGRFAFSLDTSVSTAYLQISSLKADDTAVYFCARGGFGSSYWYFDVWGQGSLVTVSS
VL: DIQLTQSPSSLSASVGDRVSITCKASHDVSIAVAWYQQKPGKAPKLLIYSASYRYTGVPDRFSGSGSGTDFTLTISSLQPEDFAVYYCQQHYITPLTFGAGTKVEIK
notes: Sacituzumab variant, His at LCV position 27 (L1 04)
As for B4, in assay [1], the binding result is reported as “binds”.

B5: MYT11621 (antibody, V domains shown)
VH: QVQLQQSGSELKKPGASVKVSCKASGYTFTNYGMNWVKQAPGQGLKWMGWINTYTGEPTYTDDFKGRFAFSLDTSVSTAYLQISSLKADDTAVYFCARGGFGSSYWYFDVWGQGSLVTVSS
VL: DIQLTQSPSSLSASVGDRVSITCKASQDVSIAVAWYQQKPGKAPKLLIYSAHYRYTGVPDRFSGSGSGTDFTLTISSLQPEDFAVYYCQQHYITPLTFGAGTKVEIK
notes: Sacituzumab variant, His at LCV position 52 (L2 03)
As for B5, the binding result in assay [1] is given as “binds”.

B6: MYT11617 (antibody, V domains shown)
VH: QVQLQQSGSELKKPGASVKVSCKASGYTFTNYGMNWVKQAPGQGLKWMGWINTYTGEPTYTDDFKGRFAFSLDTSVSTAYLQISSLKADDTAVYFCARGGFGSSYWYFDVWGQGSLVTVSS
VL: DIQLTQSPSSLSASVGDRVSITCKASQDVSIAHAWYQQKPGKAPKLLIYSASYRYTGVPDRFSGSGSGTDFTLTISSLQPEDFAVYYCQQHYITPLTFGAGTKVEIK
notes: Sacituzumab variant, His at LCV position 33 (L1 10)
With B6, the binding result in assay [1] is given as “binds”.

B7: MYT11615 (antibody, V domains shown)
VH: QVQLQQSGSELKKPGASVKVSCKASGYTFTNYGMNWVKQAPGQGLKWMGWINTYTGEPTYTDDFKGRFAFSLDTSVSTAYLQISSLKADDTAVYFCARGGFGSSYWYFDVWGQGSLVTVSS
VL: DIQLTQSPSSLSASVGDRVSITCKASQDVSHAVAWYQQKPGKAPKLLIYSASYRYTGVPDRFSGSGSGTDFTLTISSLQPEDFAVYYCQQHYITPLTFGAGTKVEIK
notes: Sacituzumab variant, His at LCV position 31 (L1 08)
For the molecule B7, the binding result in assay [1] is “binds”.

B8: MYT11612 (antibody, V domains shown)
VH: QVQLQQSGSELKKPGASVKVSCKASGYTFTNYGMNWVKQAPGQGLKWMGWINTYTGEPTYTDDFKGRFAFSLDTSVSTAYLQISSLKADDTAVYFCARGGFGSSYWYFDVWGQGSLVTVSS
VL: DIQLTQSPSSLSASVGDRVSITCKASQHVSIAVAWYQQKPGKAPKLLIYSASYRYTGVPDRFSGSGSGTDFTLTISSLQPEDFAVYYCQQHYITPLTFGAGTKVEIK
notes: Sacituzumab variant, His at LCV position 28 (L1 05)
Turning to B8, in assay [1], the binding result is reported as “binds”.

B9: MYT12410 (hu7E6SVG variant, HCV substitutions at 33, 56) (antibody, V domains shown)
VH: QVQLQESGPGLVKPSETLSLTCTVSGGSISSYHVHWIRQPPGKGLEWIGVIWTSGHTDYNSALMGRVTISVDTSKNQFSLKLSSVTAADTAVYYCARDGDYDRYTMDYWGQGTLVTVSS
VL: DIVMTQSPDSLAVSLGERATINCRASKSVSTSGYSYMHWYQQKPGQPPKLLIYLASNLESGVPDRFSGSGSGTDFTLTISSLQAEDVAVYYCQHSRELPYTFGQGTKLEIK
Regarding B9, the binding result in assay [2] is listed as “binds”.

B10: MYT12415 (hu7E6SVG variant, HCV substitutions at 34, 56) (antibody, V domains shown)
VH: QVQLQESGPGLVKPSETLSLTCTVSGGSISSYGHHWIRQPPGKGLEWIGVIWTSGHTDYNSALMGRVTISVDTSKNQFSLKLSSVTAADTAVYYCARDGDYDRYTMDYWGQGTLVTVSS
VL: DIVMTQSPDSLAVSLGERATINCRASKSVSTSGYSYMHWYQQKPGQPPKLLIYLASNLESGVPDRFSGSGSGTDFTLTISSLQAEDVAVYYCQHSRELPYTFGQGTKLEIK
On to B10, for which the binding result in assay [2] was “binds”.

B11: MYT12426 (hu7E6SVG variant, HCV substitutions at 102, 103) (antibody, V domains shown)
VH: QVQLQESGPGLVKPSETLSLTCTVSGGSISSYGVHWIRQPPGKGLEWIGVIWTSGVTDYNSALMGRVTISVDTSKNQFSLKLSSVTAADTAVYYCARDGDYHHYTMDYWGQGTLVTVSS
VL: DIVMTQSPDSLAVSLGERATINCRASKSVSTSGYSYMHWYQQKPGQPPKLLIYLASNLESGVPDRFSGSGSGTDFTLTISSLQAEDVAVYYCQHSRELPYTFGQGTKLEIK
Take B11: the binding result in assay [2] is recorded as “binds”.

B12: MYT12422 (hu7E6SVG variant, HCV substitutions at 51, 106) (antibody, V domains shown)
VH: QVQLQESGPGLVKPSETLSLTCTVSGGSISSYGVHWIRQPPGKGLEWIGVHWTSGVTDYNSALMGRVTISVDTSKNQFSLKLSSVTAADTAVYYCARDGDYDRYTHDYWGQGTLVTVSS
VL: DIVMTQSPDSLAVSLGERATINCRASKSVSTSGYSYMHWYQQKPGQPPKLLIYLASNLESGVPDRFSGSGSGTDFTLTISSLQAEDVAVYYCQHSRELPYTFGQGTKLEIK
Regarding B12, the binding result in assay [2] is reported as “binds”.

B13: MYT12419 (hu7E6SVG variant, HCV substitutions at 51, 56) (antibody, V domains shown)
VH: QVQLQESGPGLVKPSETLSLTCTVSGGSISSYGVHWIRQPPGKGLEWIGVHWTSGHTDYNSALMGRVTISVDTSKNQFSLKLSSVTAADTAVYYCARDGDYDRYTMDYWGQGTLVTVSS
VL: DIVMTQSPDSLAVSLGERATINCRASKSVSTSGYSYMHWYQQKPGQPPKLLIYLASNLESGVPDRFSGSGSGTDFTLTISSLQAEDVAVYYCQHSRELPYTFGQGTKLEIK
Consider B13, for which the binding result in assay [2] is “binds”.

B14: MYT12418 (hu7E6SVG variant, HCV substitutions at 34, 106) (antibody, V domains shown)
VH: QVQLQESGPGLVKPSETLSLTCTVSGGSISSYGHHWIRQPPGKGLEWIGVIWTSGVTDYNSALMGRVTISVDTSKNQFSLKLSSVTAADTAVYYCARDGDYDRYTHDYWGQGTLVTVSS
VL: DIVMTQSPDSLAVSLGERATINCRASKSVSTSGYSYMHWYQQKPGQPPKLLIYLASNLESGVPDRFSGSGSGTDFTLTISSLQAEDVAVYYCQHSRELPYTFGQGTKLEIK
With B14, the binding result in assay [2] is recorded as “binds”.

B15: MYT12411 (hu7E6SVG variant, HCV substitutions at 33, 102) (antibody, V domains shown)
VH: QVQLQESGPGLVKPSETLSLTCTVSGGSISSYHVHWIRQPPGKGLEWIGVIWTSGVTDYNSALMGRVTISVDTSKNQFSLKLSSVTAADTAVYYCARDGDYHRYTMDYWGQGTLVTVSS
VL: DIVMTQSPDSLAVSLGERATINCRASKSVSTSGYSYMHWYQQKPGQPPKLLIYLASNLESGVPDRFSGSGSGTDFTLTISSLQAEDVAVYYCQHSRELPYTFGQGTKLEIK
As to B15, the binding result in assay [2] was “binds”.

B16: MYT12414 (hu7E6SVG variant, HCV substitutions at 34, 51) (antibody, V domains shown)
VH: QVQLQESGPGLVKPSETLSLTCTVSGGSISSYGHHWIRQPPGKGLEWIGVHWTSGVTDYNSALMGRVTISVDTSKNQFSLKLSSVTAADTAVYYCARDGDYDRYTMDYWGQGTLVTVSS
VL: DIVMTQSPDSLAVSLGERATINCRASKSVSTSGYSYMHWYQQKPGQPPKLLIYLASNLESGVPDRFSGSGSGTDFTLTISSLQAEDVAVYYCQHSRELPYTFGQGTKLEIK
Consider B16, for which the binding result in assay [2] is “binds”.

B17: MYT12423 (hu7E6SVG variant, HCV substitutions at 56, 102) (antibody, V domains shown)
VH: QVQLQESGPGLVKPSETLSLTCTVSGGSISSYGVHWIRQPPGKGLEWIGVIWTSGHTDYNSALMGRVTISVDTSKNQFSLKLSSVTAADTAVYYCARDGDYHRYTMDYWGQGTLVTVSS
VL: DIVMTQSPDSLAVSLGERATINCRASKSVSTSGYSYMHWYQQKPGQPPKLLIYLASNLESGVPDRFSGSGSGTDFTLTISSLQAEDVAVYYCQHSRELPYTFGQGTKLEIK
Turning to B17, the binding result in assay [2] is “binds”.

The values are drawn from patent US20260274985A1 (MYTHIC THERAPEUTICS, published 2026).
